Measured values taken from publication PMC10680189.

How the values were obtained:
[1] = target: Toll-like receptor 4 (TLR-4) of Caco-2 cells (human (endogenous in Caco-2)) (UniProt O00206)
[2] = target: Toll-like receptor 4 (TLR-4) of Caco-2 cells (human (endogenous in Caco-2)) (UniProt O00206); remark: listed apart in the source

UniProt O00206, sequence (O00206 24-839): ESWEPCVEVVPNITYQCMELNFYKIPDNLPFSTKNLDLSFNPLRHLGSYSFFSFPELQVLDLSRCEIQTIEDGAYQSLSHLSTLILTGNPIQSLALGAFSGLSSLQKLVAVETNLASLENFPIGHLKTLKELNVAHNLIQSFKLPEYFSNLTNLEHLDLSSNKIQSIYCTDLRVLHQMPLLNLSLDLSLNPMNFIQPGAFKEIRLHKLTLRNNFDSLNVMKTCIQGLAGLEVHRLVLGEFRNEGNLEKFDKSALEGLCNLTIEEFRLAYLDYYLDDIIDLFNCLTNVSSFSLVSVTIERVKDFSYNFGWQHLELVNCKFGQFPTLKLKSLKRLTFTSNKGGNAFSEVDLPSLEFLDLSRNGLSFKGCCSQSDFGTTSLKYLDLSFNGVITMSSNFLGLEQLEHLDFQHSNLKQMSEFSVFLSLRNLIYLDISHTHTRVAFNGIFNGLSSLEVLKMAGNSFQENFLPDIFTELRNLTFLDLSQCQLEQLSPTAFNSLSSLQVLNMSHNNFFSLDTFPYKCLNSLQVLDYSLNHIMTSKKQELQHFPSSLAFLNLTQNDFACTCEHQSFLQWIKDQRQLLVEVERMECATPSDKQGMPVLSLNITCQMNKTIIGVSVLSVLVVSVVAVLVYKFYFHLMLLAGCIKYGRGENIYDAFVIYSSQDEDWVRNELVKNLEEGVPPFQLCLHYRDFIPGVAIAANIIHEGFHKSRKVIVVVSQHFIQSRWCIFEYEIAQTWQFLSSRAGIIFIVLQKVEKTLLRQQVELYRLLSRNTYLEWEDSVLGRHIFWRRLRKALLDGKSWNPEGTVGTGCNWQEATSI

In the case of “recombinant Trichinella spiralis galectin with GST tag (GST-rTsgal) (natural protein)”, the TLR-4 protein expression level (Western blot) in Caco-2 cells incubated with rTsgal (50 µg/mL) for 48 h, increase against the PBS group [1] was 47.7%, the TLR-4 transcription level (qPCR) in Caco-2 cells incubated with rTsgal (50 µg/mL) for 48 h, increase against the PBS group [1] was 18.4% and the NF-κB p65 transcription level (qPCR) in Caco-2 cells treated with rTsgal for 48 h, increase against the PBS group [2] was 60.2%.
